Laboratory results from patent publication US20160046707A1 (EISAI R AND D MANAGEMENT, published 2016).
Residue numbers refer to the chain shown, from its start.

T1: cynomolgus CCL20-secreted alkaline phosphatase (SEAP) fusion (cynomolgus monkey)
T1 construct: also called cCCL20; cynomolgus CCL20-SEAP; not shown: the SEAP reporter (cDNA from Clontech pSEAP-Enhancer) and its junction to CCL20
T1 chain: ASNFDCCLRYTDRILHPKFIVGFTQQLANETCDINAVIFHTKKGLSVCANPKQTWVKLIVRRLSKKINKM

T2: rhesus CCL20-secreted alkaline phosphatase (SEAP) fusion (rhesus monkey)
T2 construct: also called rCCL20; rhesus CCL20-SEAP; not shown: the SEAP reporter (cDNA from Clontech pSEAP-Enhancer) and its junction to CCL20
T2 chain: T1 chain with I38V

T3: recombinant human CCL16 (human, UniProt O15467 24-120)
T3 construct: also called HCC-4
T3 sequence (looked up): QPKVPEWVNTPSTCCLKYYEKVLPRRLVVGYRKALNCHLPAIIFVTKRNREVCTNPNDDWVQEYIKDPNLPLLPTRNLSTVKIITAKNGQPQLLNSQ

B1: mouse anti-human CCL20 monoclonal antibody 36F7C10 (antibody, V domains shown)
VH: QVQLQQPGAELVKPGASVKMSCKASGYTFTNYWMHWVKQRPGQGLEWIGVIDPSDSYTTYNQKFKGKATLTVDTSSSTAYMQLSSLTSEDSAVYYCTRGNYGVDYAMDYWGQGTSVTVSS
VL: DIQMTQSPASLSASVGETVTITCGASENIYGALNWYQRKQGKSPQLLIYGATNLADGMSSRFSGSGSGRQYSLKISSLHPDDVATYYCQNVLITPYTFGGGTKLEIK
notes: Mouse hybridoma antibody; also called MouseMAb; parental mouse clone 36F7C10
B2: chimeric 36F7C10 antibody (36F7C10-hFc) (antibody, V domains shown)
VH: B1 VH
VL: B1 VL
notes: also called chimeric 36F710; Chimeric MAb
B3: humanized anti-human CCL20 antibody 36LK3/36HC2 (antibody, human IgG1, kappa, V domains shown)
VH: QVQLVQSGAEVKKPGASVKVSCKASGYTFTNYWMHWVRQAPGQGLEWMGVIDPSDSYTTYAQKFQGRVTMTVDTSTSTVYMELSSLRSEDTAVYYCARGNYGVDYAMDYWGQGTLVTVSS
VL: DIQMTQSPSSLSASVGDRVTITCGASENIYGALNWYQRKPGKAPKLLIYGATNLADGVPSRFSGSGSGRDYTLTISSLQPEDFATYYCQNVLITPYTFGQGTKLEIKR
notes: expressed in HEK293 cells; also called HC2/LK3; HC2LK3
B4: humanized anti-human CCL20 antibody 36LC3/36HC2 (antibody, human IgG1, kappa, V domains shown)
VH: B3 VH
VL: B3 VL with G24R, R38Q, D70Q, T72S, Q100G
notes: expressed in HEK293 cells; also called HC2/LC3; HC2LC3

Tests used:
[1] = target: T4, human CCL20 anchored via a His-tag (human, UniProt P78556 27-96); experiment: ELISA on His-tag anchored human CCL20, antibody titrated (x axis 'Ab conc. (ug/ml)', falling from left to right), Abs 450
T4 construct: Construct not described; also called His-tag anchored CCL20; not shown: His-tag
T4 sequence (P78556 27-96 limits assumed): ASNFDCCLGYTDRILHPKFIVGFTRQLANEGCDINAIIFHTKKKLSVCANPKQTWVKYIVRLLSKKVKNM

[2] = target: T1, cynomolgus CCL20-secreted alkaline …; experiment: SPR (Biacore), bivalent format, KD ratio against human CCL20 (Table 17)
Method: (§1) We also used surface plasmon resonance (Biacore™) analysis to test whether HC2/LC3 and HC2/LK3 can bind to mouse, cynomolgus, or rhesus macaque CCL20 orthologs. Monoclonal mouse anti-human placental alkaline phosphatase was immobilized on all four flow cells of a CM5 chip at a flow rate of 25 μl/min. 25 μl of a 2 nM solution of human, rhesus, cynomolgus, or mouse CCL20-SEAP in HBS-EP buffer was injected over flow cell 2, 3, or 4. For antibody binding, 240 μl of 0-80 nM dilutions of HC2/LC3, HC2/LK3, or 2F5-5 MAb in HBS-EP buffer (or buffer alone) was injected over all four flow cells at a flow rate of 50 μl/min. Dissociation followed for 45 min. Flow cell 1 (anti-SEAP alone) was used as a reference for all flow cells. Regeneration of the flow cells was performed with 10 mM glycine at pH 2.25. Due to regeneration effects on the capturing capacity of the chips, antibody injections were performed sequentially from low to high concentration. Data fitting was performed using a 1:1 Langmuir model.
(§2) In contrast, chimeric, HC2/LC3, and HC2/LK3 antibodies effectively bound to human, rhesus, and cynomolgus CCL20 (Table 17).

[3] = target: T2, rhesus CCL20-secreted alkaline …; experiment: as above
Method: as §1, §2

[4] = target: T1, cynomolgus CCL20-secreted alkaline …; experiment: SPR (Biacore), CCL20-SEAP captured by anti-SEAP, antibody injected (bivalent format), 1:1 Langmuir
Method: as §1, §2

[5] = target: T5, human CCL20-secreted alkaline phosphatase (SEAP) fusion (human, UniProt P78556 27-96); experiment: as above
T5 construct: also called hCCL20; human CCL20-SEAP; not shown: secreted alkaline phosphatase (SEAP), cDNA from pSEAP-Enhancer vector (Clontech)
T5 sequence (P78556 27-96): as the sequence (P78556 27-96 limits assumed) above
Method: as §1, §2

[6] = target: T2, rhesus CCL20-secreted alkaline …; experiment: as above
Method: as §1, §2

[7] = target: T3, recombinant human CCL16; experiment: SPR (Biacore): antibody captured on anti-human Fc, 100 nM chemokine injected; ratio = chemokine binding level over antibody capture level
Method: We used Biacore™ analysis to test whether HC2/LK3 and HC2/LC3 cross-react with CCL16. Monoclonal mouse anti-human Fc was immobilized on all four flow cells of a CM5 chip at a flow rate of 25 μl/min with HBS-EP buffer containing 0.2 mg/mL BSA. Subsequently, 50 μl of a 1 μg/ml solution of chimeric, HC2/LC3, or HC2/LK3 antibody in HBS-EP buffer with 0.2 mg/ml BSA was injected over flow cells 2, 3, and 4, respectively. 150 μl of a 100 nM solution of CCL20 or CCL16 in HBS-EP buffer (or buffer alone) with 0.2 mg/ml BSA was then injected over all four flow cells at a flow rate of 40 μl/min. Dissociation followed for 20 min. Flow cell 1 (anti-human Fc antibody alone) was used as a reference for all flow cells.
Under these conditions, human CCL20 bound to the chimeric (FIG. 13A), HC2/LC3 (FIG. 13B), and HC2/LK3 (FIG. 13B) antibodies captured on the chip with similar strength.

Row | Binder | EC50 (read off the curve) [1] [ng/mL] | fold higher KD than for human CCL20 [2] [fold] | fold higher KD than for human CCL20 [3] [fold] | Kd [4] [nM] | koff [4] [s⁻¹] | kon [4] [M⁻¹ s⁻¹] | Kd [5] [nM] | koff [5] [s⁻¹] | kon [5] [M⁻¹ s⁻¹] | Kd [6] [nM] | koff [6] [s⁻¹] | kon [6] [M⁻¹ s⁻¹] | ReqCk/ReqAb ratio [7]
1 | B1 | ~5 | – | – | – | – | – | – | – | – | – | – | – | –
2 | B2 | ~8 | ~3 | ~3 | 0.0132 | 5.04e-05 | 3.83e+06 | 0.00716 | 2.08e-05 | 2.9e+06 | 0.00605 | 1.78e-05 | 2.94e+06 | 0.006
3 | B3 | ~6 | ~3 | ~3 | 0.0283 | 0.000149 | 5.28e+06 | 0.0118 | 3.39e-05 | 2.88e+06 | 0.0312 | 8.21e-05 | 2.63e+06 | 0.006
4 | B4 | ~6 | ~3 | ~3 | 0.0155 | 0.000134 | 8.64e+06 | 0.00471 | 2.68e-05 | 5.69e+06 | 0.0182 | 7.51e-05 | 4.13e+06 | 0.005
